The values below come from publication PMC12412652 (2025).

By Kd is commonly meant the equilibrium constant for the complex coming apart.

The chains are these.
B1: BAX-CDP01 (BAX-targeting computationally designed protein 01) (designed binder)
chain: GADPKKVLDKARDQAENRVRELAQKLEELYKEARKLDLTQEERRKLEKRYKAAMEEAIKDIREAIRQAKQEADKLKKAGLVNSQQLKELKQRLNELAIAAALRAIGDAIEFRRKLQYG
B2: αBAX2 (designed binder)
chain: GADPKKVLDKARDQAENRVRELRQKLTELYKEARKLDLTQEERRKLIKRYKAAMNEAIKDIHEAIEQAKEEADKLKDAGLVNEQQLKELKQRLNEKALAAAFRASGDTWHARRKLQYG
B3: αBAX1 (designed binder)
chain: B1 chain with R62H, R66E, Q70E, K77D, S83E, L102F, I105S, A108T
B4: αBAK2 (designed binder)
chain: GADPKKVLDKADDQMENVVVTLKQELEELAKERRKLDLTQSEKIELKLRYIVAHLAAIGDIEEAIREAKEEADKLKKAGLVNSQQFAEFKRRLEELHKEADRKRRDYAEEFRNKLEYG
B5: BAK-CDP02 (BAK-targeting computationally designed protein 02 of 11) (designed binder)
chain: GADPKKVLDKAKDQAENVVRKLKQILEELYKEARKLDLTQDEKIELILRYIAAMLAAIGDILEAIRQAKEEADKLKKAGLVNSQQLDELKRRLEELRKEAARKARDYAEEFRNKLEYG
B6: αBAK1 (designed binder)
chain: B4 chain with D12K, V20R, T21K, E25I, R33A, S41D, K47I, F86L, A87D

Numbering of substitutions follows the chain as printed. A value given as a limit tells only on which side of the number the result lay.

Sequence of MBP-BAX 1-166 C62S C126S, biotinylated (Avi tag, 6-histidine tag) (Q07812 1-166 C62S/C126S): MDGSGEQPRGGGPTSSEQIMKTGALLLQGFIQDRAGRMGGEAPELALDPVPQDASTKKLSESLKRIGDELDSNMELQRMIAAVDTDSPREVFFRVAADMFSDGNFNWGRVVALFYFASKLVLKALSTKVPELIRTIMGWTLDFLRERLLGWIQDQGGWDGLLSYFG

In the first test the target is BCL-2 (UniProt P10415 1-239, biotin). The experiment in a line: BLI.
Sequence of BCL-2 (P10415 1-207): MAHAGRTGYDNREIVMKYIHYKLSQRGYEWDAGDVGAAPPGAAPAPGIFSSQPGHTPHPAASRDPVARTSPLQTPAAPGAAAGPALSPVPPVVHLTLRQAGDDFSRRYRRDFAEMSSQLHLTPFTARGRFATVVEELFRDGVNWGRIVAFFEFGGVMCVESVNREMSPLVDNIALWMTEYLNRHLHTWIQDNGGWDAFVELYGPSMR
On to B1, for which the Kd was found to be 50 nM.
Molecule B2 showed a Kd of 2300 nM.
The molecule B3 came in with a Kd of 3500 nM.
As to B4, the Kd came out at 133 nM.
In turn, B5 had a Kd of 130 nM.

A further test concerns the target MBP-BAX 1-166 C62S C126S, biotinylated (Avi tag, 6-histidine tag) (human, UniProt Q07812 1-166, C62S | C126S, biotin on the Avi tag (enzymatic, BirA)). As to the kind of experiment: BLI. In general terms: Biolayer interferometry detects binding as a change in optical thickness at a sensor tip.
Turning to B3, binding was characterised by a dissociation constant (Kd) of 1.43 nM.
On the same count and under the same terms, the result for B4 reads greater than 9000 nM.
Still for that read-out and setting: the result for B6 reads 10000 nM.

Another test addresses T1, MBP-BAK 16-186, biotinylated (Avi tag, 6-histidine tag) (human, UniProt Q16611 16-186, biotin on the Avi tag (enzymatic, BirA)).
T1 chain: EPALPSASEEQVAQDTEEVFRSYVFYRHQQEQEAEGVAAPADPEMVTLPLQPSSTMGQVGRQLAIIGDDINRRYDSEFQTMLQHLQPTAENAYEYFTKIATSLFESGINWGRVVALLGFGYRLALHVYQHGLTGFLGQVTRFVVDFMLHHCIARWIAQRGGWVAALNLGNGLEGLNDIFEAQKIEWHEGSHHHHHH
As to the kind of experiment: BLI.
In turn, B2 returned a Kd greater than 9000 nM.

The next test concerns the target MBP-BAK 16-186, biotinylated (Avi tag, 6-histidine tag) (human, UniProt Q16611 16-186, biotin on the Avi tag (enzymatic, BirA)). As to the kind of experiment: BLI.
For the molecule B1, the Kd worked out at 3100 nM.
The same measure, in the same setting: the result for B3 reads greater than 20000 nM.

The next test deals with T2, BFL-1 (UniProt Q16548 1-175, biotin).
T2 chain: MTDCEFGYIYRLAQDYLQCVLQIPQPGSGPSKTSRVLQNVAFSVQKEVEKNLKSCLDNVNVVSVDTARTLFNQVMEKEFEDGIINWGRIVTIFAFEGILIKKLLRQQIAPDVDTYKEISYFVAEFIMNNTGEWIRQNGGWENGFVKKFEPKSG
As to the kind of experiment: BLI.
Molecule B1 came in with a Kd of 23 nM.
In the case of B2, the Kd amounted to 300 nM.
The molecule B4 had a Kd of 960 nM.
Take B6: binding was put at a Kd of 1700 nM.
The same measure, in the same setting: under B5 stands 10 nM.
